# What was measured:
# [1] = molecular target: Mucin I: Crude mucin, type II from porcine stomach (Sigma)
# [2] = molecular target: Mucin I: Crude mucin, type II from porcine stomach (Sigma); remark: listed apart in the source
# [3] = molecular target: Mucin I: Crude mucin, type II from porcine stomach (Sigma); remark: listed apart in the source
Substance,"viscosity, rheometer, constant rate (stress versus shear rate) [1]","viscosity, rheometer, comparison of four TFF2 peptides (7.05 mg in 2 ml 10% mucin I) [2]","Elastic modules G' (Pa) at 1 Hz, oscillatory measurement [3]"
glycosylated recombinant human Asn99-TFF2 (from UniProt Q03403) (ligand),10 factor,0.8 Pa s,17 Pa
non-glycosylated recombinant human Asn99-TFF2 (from UniProt Q03403) (ligand),–,0.54 Pa s,–
